Reference: patent US20230034474A1 (AC IMMUNE, published 2023)

Legend:
Abeta1-42 [1] = molecular target: T1, Abeta1-42 (human); assay: indirect ELISA, Abeta1-42 coated, antibody titrated
T1 construct: coated on plates in the direct ELISA, in solution as analyte in the sandwich ELISA; also called human Abeta 1-42; amyloid-beta 1-42
Experimental: (§1) Antibody target binding was evaluated by an enzyme-linked immunosorbent assay (ELISA). Briefly, Nunc MaxiSorp 96-well plates (Nunc) were coated for 18 h at 4° C. with 50 μL of 10 pg/mL Abeta1-42 or bovine serum albumin (BSA, Sigma) diluted in PBS. In selected assays, the full-length sAPPalpha fragment (Sigma) was additionally included by coating wells as described above, but at 4 pg/mL (0.04 μM). Plates were then washed 4-times with 300 μL of PBS containing 0.05% Tween20 (Millipore). To block non-specific binding to the plate, freshly prepared solution of PBS containing 0.05% Tween20 and 1% BSA, was added to each well (100 μL/well) and the plates were incubated for 1 h at 37° C. Primary antibodies were diluted to 100 nM in PBS containing 1% BSA and 0.05% Tween20, followed by 3-fold serial dilutions in duplicates. Solutions were added to plates at 50 μL/well and incubated for 1 h at 37° C. Subsequently, the plates were washed 4-times with 300 μL of PBS containing 0.05% Tween20. Plates were then incubated with horseradish peroxidase (HRP) conjugated goat anti-mouse secondary IgG (Abcam) for 1 h at 37° C. After final wash step (4-times with 300 μL of PBS containing 0.05% Tween20), plates were incubated with 3,3′,5,5′-tetramethylbenzidine (TMB) substrate (BD Biosciences) and reaction stopped with a Stop Solution (Sigma). Finally, optical densities (O.D.) were read at 450 nm absorption wavelength using a Tecan Infinite plate reader. Measured values are expressed as mean O.D. from a duplicate run ±1 standard deviation of the mean (S.D.).

Abeta1-42 [2] = molecular target: T1, Abeta1-42; assay: indirect ELISA, plate coated with Abeta1-42, antibody titrated, anti-mouse IgG-HRP, O.D. 450 nm
Experimental: (§2) Antibody target binding was evaluated by an enzyme-linked immunosorbent assay (ELISA). Briefly, Nunc MaxiSorp 96-well plates (Nunc) were coated for 18 h at 4° C. with 50 μL of 10 pg/mL Abeta1-42 or bovine serum albumin (BSA, Sigma) diluted in PBS. In selected assays, the full-length sAPPalpha fragment (Sigma) was additionally included by coating wells as described above, but at 4 pg/mL (0.04 μM). Plates were then washed 4-times with 300 μL of PBS containing 0.05% Tween20 (Millipore). To block non-specific binding to the plate, freshly prepared solution of PBS containing 0.05% Tween20 and 1% BSA, was added to each well (100 μL/well) and the plates were incubated for 1 h at 37° C. Primary antibodies were diluted to 100 nM in PBS containing 1% BSA and 0.05% Tween20, followed by 3-fold serial dilutions in duplicates. Solutions were added to plates at 50 μL/well and incubated for 1 h at 37° C. Subsequently, the plates were washed 4-times with 300 μL of PBS containing 0.05% Tween20. Plates were then incubated with horseradish peroxidase (HRP) conjugated goat anti-mouse secondary IgG (Abcam) for 1 h at 37° C. […] Finally, optical densities (O.D.) were read at 450 nm absorption wavelength using a Tecan Infinite plate reader. Measured values are expressed as mean O.D. from a duplicate run ±1 standard deviation of the mean (S.D.).

[3] = molecular target: T2, full-length sAPPalpha fragment (UniProt P05067-4 18-612, limits assumed); assay: indirect ELISA, sAPPalpha coated
T2 construct: domain: sAPPalpha; Bought protein; also called soluble APP alpha; soluble amyloid precursor protein alpha
T2 sequence (P05067 other isoform, or with tags, fused parts or gaps limits assumed): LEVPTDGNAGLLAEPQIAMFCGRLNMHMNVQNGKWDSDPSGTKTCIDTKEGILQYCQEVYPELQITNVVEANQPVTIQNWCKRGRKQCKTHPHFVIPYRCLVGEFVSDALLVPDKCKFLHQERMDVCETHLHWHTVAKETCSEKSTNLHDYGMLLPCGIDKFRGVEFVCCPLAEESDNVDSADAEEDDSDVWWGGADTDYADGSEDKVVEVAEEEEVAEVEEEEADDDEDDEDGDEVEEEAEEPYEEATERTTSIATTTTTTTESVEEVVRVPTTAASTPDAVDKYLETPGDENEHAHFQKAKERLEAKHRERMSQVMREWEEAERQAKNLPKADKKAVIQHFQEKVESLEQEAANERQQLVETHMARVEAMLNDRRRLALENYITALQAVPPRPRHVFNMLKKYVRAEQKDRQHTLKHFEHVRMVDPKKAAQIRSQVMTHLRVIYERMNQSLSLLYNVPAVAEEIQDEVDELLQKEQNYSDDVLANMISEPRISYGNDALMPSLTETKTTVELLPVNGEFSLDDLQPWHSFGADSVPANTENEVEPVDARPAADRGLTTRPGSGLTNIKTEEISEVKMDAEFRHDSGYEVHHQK
Experimental: as §1

[4] = molecular target: T3, Human Abeta1-42 biotinylated at the peptide C-terminus (human, biotin at the peptide C-terminus); assay: target capture ELISA
T3 construct: also called biotinylated Abeta1-42
Experimental: Briefly, a Nunc MaxiSorp 96-well plate (Nunc) was coated for 18 h at 4° C. with 50 μL of 5 pg/mL goat anti-mouse IgG, Fc-gamma fragment specific antibody (Jackson Immune Research) diluted in carbonate-bicarbonate buffer. The plate was then washed 4-times with 300 μL of PBS containing 0.05% Tween20 (Millipore). To block non-specific binding to the plate, freshly prepared solution of PBS containing 0.05% Tween20 and 1% BSA, was added to each well (100 μL/well) and the plate was incubated for 1 h at 37° C. […] Subsequently, the plate was washed 4-times with 300 μL of PBS containing 0.05% Tween20. […] After washing 4-times with 300 μL of PBS containing 0.05% Tween20, the plate was incubated for 45 min at ambient temperature with 50 μL/well of streptavidin-HRP (R&D systems) diluted 1:200 in PBS containing 1% BSA and 0.05% Tween20. The plate was again washed 4-times with 300 μL of PBS containing 0.05% Tween20 before incubating at ambient temperature for 20 or 30 min with 50 or 100 μL/well of 3,3′,5,5′-tetramethylbenzidine (TMB) enzyme substrate (BD Bioscience). Reaction was stopped with a 1.2 M HCl (Sigma) solution. Finally, optical densities (O.D.) were read at 450 nm absorption wavelength using a Tecan Infinite plate reader.

bovine serum albumin = molecular target: T4, bovine serum albumin (bovine, UniProt P02769 25-607); assay: indirect ELISA, plate coated with BSA, antibody titrated, anti-mouse IgG-HRP, O.D. 450 nm
T4 construct: Negative control antigen; also called BSA
Experimental: as §2

Kd (Abeta1-42 [1]): 196 pM
EC50 (read off the curve) (Abeta1-42 [2]): ~200 pM
binding result [3]: no binding
binding result [4]: binds
binding result (bovine serum albumin): no binding (tested: 100 nM)
B1: ACI-31-30C11-Ab1 (murine IgG2a with a kappa light chain) (antibody, V domains shown)
VH: QVQLQQSGPELVKPGASVKISCKASGYAFSSSWLNWVKQRPGEGLEWIGRIYPGDGDINYNGKFKGKATLTADKSSSTAYMQLSSLTSDDSAVYFCTKRGRYALDYWGQGTSVTVSS
VL: DIVLTQSPASLAVSLGQRATISCRASKSVDNYGKSFMHWFQQKPGQPPKLLIYRASNLESGIPARFSGSGSRTDFTLTINPVEADDVATYYCQQSNEDPYTFGGGTKLEMKR
notes: also called AC-31-30C11-Ab1
